Source: patent WO2012074097A1 (dated 2012)

B1: anti-CD33 monoclonal antibody KM4073 (antibody, V domains shown)
VH: QVKLLQSGAALVKPGASVKMSCKVSGYTFTDYWVNWVKQSHGKTLEWIGEIYPNSGATNFNEKFKDKATLTVDRSTSTAYLEFSRLTSEDSAIYYCSLGPYWGQGVMVTVSS
VL: DVVLTQTPPTLSATIGQSVSISCRSSQSLLDSDGQTYLNWFLQRPGQSPQLLIYSVSNLESGVPNRFSGSGSETDFTLKISGVEAEDLGLYYCMQATHAPLTFGSGTNLEIK
notes: Hybridoma antibody from rat or mouse
B2: anti-CD33 monoclonal antibody KM4071 (antibody, V domains shown)
VH: QIQLVQSGPELKKPEETVKISCKASDYTFTDYSIHWVKQAPGKGLKWMGWINTETGETTNADDLKGRFAFSVETSASTAYLQINNLKNEDTATYFCARYRYDASYGMDYWGQGTSVTVSS
VL: STVLTQSPKSMSMSVGERVTLSCKASENVGTYVSWYQQKPEQSPELLIYGSSNRSTGVPDRFTGSGSATDFTLTISSVQAEDLADYHCGQSYSYPPTFGGGTRLEIK
notes: as for B1
B3: anti-CD33 monoclonal antibody KM4075 (antibody, V domains shown)
VH: QLQESGPGLVKPSQSLSLTCSVTGYTITSGSDWSWIRKFPGNKMEWMGYISYSGNTNYNPSLKSRISITRDTSKNQFFLHLNSVTTADTATYYCTGKGWGQGVMVTVSS
VL: DVVLTQTPVSLSVTLGDQASISCRSSQSLEYSDGYTYLEWYLQKPGHSPQLLIYGVSNRFSGVPDRFIGSGSGTDFTLRISRVEPEDLGVYYCFQATHDPYTFGAGTKLEL
notes: as for B1
B4: anti-CD33 monoclonal antibody KM4074 (antibody, V domains shown)
VH: QLQETGPGLVKPSQSLSLTCSVTGYTITSGYEWTWIRKFPGNRMEWMGYINSSGSTDYNPSLKSRVSITRDTSKNQFFLQLNSVTTEDTATYFCTRWDRWGPGVMVTVSS
VL: DVVLTQTLVAQPVRLGDQASISCRSSQSLVHSDGHTYLEWYLQKPGQSPQLLIYEISNRFSGVPDRFSGSGSGSDFTLKISRVEPEDLGLYYCFQGTHDLPTFGGGTKLELK
notes: as for B1
B5: anti-CD33 chimeric antibody KM4054 (antibody, V domains shown)
VH: QLQETGPGLVKPSQSLSLTCSVTGYTITSGYEWTWIRKFPGNRMEWMGYINSSGSTDYNPSLKSRVSITRDTSKNQFFLQLNSVTTEDTATYFCTRWDRWGPGVMVTVSS
VL: DVVLTQTLVAQPVRLGDQASISCRSSQSLVHSDGHTYLEWYLQKPGQSPQLLIYEISNRFSGVPDRFSGSGSGSDFTLKISRVEPEDLGLYYCFQGTHDLPTFGGGTKLELK
notes: Expressed in FUT8 knockout CHO cells, so no core fucose
B6: modified CD33 chimeric antibody ver.2 (antibody, V domains shown)
VH: QLQETGPGLVKPSQSLSLTCSVTGYTITSGYEWTWIRKFPGNRMEWMGYISSSGSTDYNPSLKSRVSITRDTSKNQFFLQLNSVTTEDTATYFCTRWDRWGPGVMVTVSS
VL: DVVLTQTLVAQPVRLGDQASISCRSSQSLVHSDGHTYLEWYLQKPGQSPQLLIYEISNRFSGVPDRFSGSGSGSDFTLKISRVEPEDLGLYYCFQGTHDLPTFGGGTKLELK
B7: modified CD33 chimeric antibody ver.3 (antibody, V domains shown)
VH: QLQETGPGLVKPSQSLSLTCSVTGYTITSGYEWTWIRKFPGNRMEWMGYIQSSGSTDYNPSLKSRVSITRDTSKNQFFLQLNSVTTEDTATYFCTRWDRWGPGVMVTVSS
VL: DVVLTQTLVAQPVRLGDQASISCRSSQSLVHSDGHTYLEWYLQKPGQSPQLLIYEISNRFSGVPDRFSGSGSGSDFTLKISRVEPEDLGLYYCFQGTHDLPTFGGGTKLELK
B8: modified CD33 chimeric antibody ver.1 (antibody, V domains shown)
VH: QLQETGPGLVKPSQSLSLTCSVTGYTITSGYEWTWIRKFPGNRMEWMGYIYSSGSTDYNPSLKSRVSITRDTSKNQFFLQLNSVTTEDTATYFCTRWDRWGPGVMVTVSS
VL: DVVLTQTLVAQPVRLGDQASISCRSSQSLVHSDGHTYLEWYLQKPGQSPQLLIYEISNRFSGVPDRFSGSGSGSDFTLKISRVEPEDLGLYYCFQGTHDLPTFGGGTKLELK
B9: modified CD33 chimeric antibody ver.4 (KM4084) (antibody, V domains shown)
VH: QLQETGPGLVKPSQSLSLTCSVTGYTITSGYEWTWIRKFPGNRMEWMGYINSAGSTDYNPSLKSRVSITRDTSKNQFFLQLNSVTTEDTATYFCTRWDRWGPGVMVTVSS
VL: DVVLTQTLVAQPVRLGDQASISCRSSQSLVHSDGHTYLEWYLQKPGQSPQLLIYEISNRFSGVPDRFSGSGSGSDFTLKISRVEPEDLGLYYCFQGTHDLPTFGGGTKLELK
B10: modified CD33 chimeric antibody ver.5 (antibody, V domains shown)
VH: QLQETGPGLVKPSQSLSLTCSVTGYTITSGYEWTWIRKFPGNRMEWMGYINSGGSTDYNPSLKSRVSITRDTSKNQFFLQLNSVTTEDTATYFCTRWDRWGPGVMVTVSS
VL: DVVLTQTLVAQPVRLGDQASISCRSSQSLVHSDGHTYLEWYLQKPGQSPQLLIYEISNRFSGVPDRFSGSGSGSDFTLKISRVEPEDLGLYYCFQGTHDLPTFGGGTKLELK
B11: anti-CD33 monoclonal antibody KM4072 (antibody, V domains shown)
VH: QVQLQQSGAELVKPGASVKMSCKASGYTFTTYPIEWMKQNHGKSLEWIGNFHPYNDDTEYNEKFKGKATLTVEKSSSTVYLELSRLTSDDSAVYYCARGYYYAMDYWGQGTSVTVSS
VL: DAVMTQTPLSLPVSLGDQASISCRSSQSLEDSNGNTYLNWYLQKPGQSPQLLIYRVSNRFSGVLDRFSGSGSGTDFTLKISRVEAEDLGVYFCLQLTHVPWTFGGGTKLEIK
notes: as for B1

Tests used:
[1] = molecular target: T1, human CD33 on cells (human CD33-expressing CHO/DG44 cell line; CD33-positive cell lines THP-1, NB-4) (human, UniProt P20138 18-364); experiment: FMAT on human CD33-expressing CHO/DG44 cells, hybridoma supernatant
T1 construct: The same entry is used here for the endogenous CD33 of THP-1, NB-4 and other leukemia lines; also called hCD33; CD33 transfectant

[2] = molecular target: T2, Recombinant human Siglec-3 (CD33)/Fc Chimera (R&D Systems, catalog number 1137-SL) (human, UniProt P20138 18-259); experiment: SPR (Biacore T-100), antibody captured on anti-mouse IgG, CD33-Fc as analyte
T2 construct: Bought product; also called recombinant human CD33-Fc; not shown: Fc part of the bought fusion protein; not described

[3] = molecular target: T1, human CD33 on cells (human …); experiment: flow cytometry on THP-1 cells
[4] = molecular target: T3, histidine-tagged soluble human CD33 (hCD33-His) (human, UniProt P20138 18-259); experiment: SPR (Biacore T-100), antibody captured on anti-human IgG, hCD33-His as analyte
T3 construct: Human CD33 extracellular region with six histidines at the C-terminus, made in CHO/DG44 cells

[5] = molecular target: T2, Recombinant human Siglec-3 (CD33)/Fc …; experiment: binding ELISA, CD33-Fc on the plate

T3 sequence (P20138 other isoform, or with tags, fused parts or gaps limits assumed): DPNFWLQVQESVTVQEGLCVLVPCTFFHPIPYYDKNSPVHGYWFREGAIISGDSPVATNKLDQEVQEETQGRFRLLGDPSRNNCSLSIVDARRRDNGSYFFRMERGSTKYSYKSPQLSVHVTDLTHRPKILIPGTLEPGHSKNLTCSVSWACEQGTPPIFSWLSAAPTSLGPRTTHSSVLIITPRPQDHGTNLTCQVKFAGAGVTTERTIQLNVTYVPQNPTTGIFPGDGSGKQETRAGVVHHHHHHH
T2 sequence (P20138 18-259 limits assumed, change not shown): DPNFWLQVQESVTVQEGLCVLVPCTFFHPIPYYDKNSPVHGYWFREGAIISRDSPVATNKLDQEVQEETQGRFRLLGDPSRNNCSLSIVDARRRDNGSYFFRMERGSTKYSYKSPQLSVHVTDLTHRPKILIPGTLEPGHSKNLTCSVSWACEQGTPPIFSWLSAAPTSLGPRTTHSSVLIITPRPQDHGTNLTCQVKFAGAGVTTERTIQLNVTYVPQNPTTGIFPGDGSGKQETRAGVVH
T1 sequence (P20138 other isoform, or with tags, fused parts or gaps limits assumed): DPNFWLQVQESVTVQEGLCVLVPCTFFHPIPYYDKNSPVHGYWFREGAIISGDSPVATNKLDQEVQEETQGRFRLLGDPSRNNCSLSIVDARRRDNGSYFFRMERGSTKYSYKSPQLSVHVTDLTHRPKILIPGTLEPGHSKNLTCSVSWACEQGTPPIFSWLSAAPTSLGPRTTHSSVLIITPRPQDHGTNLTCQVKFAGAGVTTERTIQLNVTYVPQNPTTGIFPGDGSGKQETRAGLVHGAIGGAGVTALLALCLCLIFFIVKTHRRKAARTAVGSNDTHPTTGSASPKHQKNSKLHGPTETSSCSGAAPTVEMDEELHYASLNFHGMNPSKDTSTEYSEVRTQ

Row | Binder | binding result [1] | binding result [2] | binding result [4] | also measured
1 | B1 | binds | binds | – | –
2 | B2 | binds | binds | – | –
3 | B3 | – | binds | – | binding result [3]: binds
4 | B4 | binds | binds | – | –
5 | B5 | – | – | binds | binding result [5]: binds; binding result [3]: binds
6 | B6 | – | – | binds | –
7 | B7 | – | – | binds | –
8 | B8 | – | – | binds | –
9 | B9 | – | – | binds | –
10 | B10 | – | – | binds | –
11 | B11 | binds | – | – | –
